The data set deals with the molecule itself. Kind of data set: native MS; non-denaturing nano-electrospray MS; 10 uM protein (Q-ToF) or 15 uM protein (Synapt HDMS) sprayed from 15 mM ammonium acetate pH 7.5, cone voltage 80 V; monomer to dimer.

B1: C-terminal domain of wild-type murine FTO (residues D329-end) (domain or fragment, mouse, UniProt Q8BGW1 329-502, looked up)
chain: DYILERCQLALQNVLNDSDDGDVSLKSFDPAVLKQGEEIHNEVEFEWLRQFWFQGNRYKLCTDWWCEPMTHLEGLWKKMESMTNAVLREVKREGLPVEQRSEILSAILVPLTVRQNLRKEWHARCQSRVVRTLPVQQKPDCRPYWEKDDPSMPLPFDLTDVVSELRGQLLEARS
modifications: partial alpha-N-gluconylation of the N-terminal His-tag (+178 Da adduct, likely)
notes: FTO, mouse, C-terminal domain, residues 329-502; Further details of the construct are in Text S1; also called CmFTO; mFTO 329-502 truncation; source: E. coli, soluble; prepared as previously reported for full length mFTO [8]; not shown: His tag, N-terminal, kept
For orientation: stoichiometry N means a count of units in the complex or per binding partner. In the case of B1, the “stoichiometry N” value is 2.

B2: wild-type murine FTO (fat mass and obesity associated protein), full length (enzyme, mouse, UniProt Q8BGW1 1-502, looked up)
chain: MKRVQTAEEREREAKKLRLLEELEDTWLPYLTPKDDEFYQQWQLKYPKLVFREAGSIPEELHKEVPEAFLTLHKHGCLFRDVVRIQGKDVLTPVSRILIGDPGCTYKYLNTRLFTVPWPVKGCTVKYTEAEIAAACQTFLKLNDYLQVETIQALEELAVREKANEDAVPLCMAEFPRAGVGPSCDDEVDLKSRAAYNVTLLNFMDPQKMPYLKEEPYFGMGKMAVSWHHDENLVDRSAVAVYSYSCEGSEDESEDESSFEGRDPDTWHVGFKISWDIETPGLTIPLHQGDCYFMLDDLNATHQHCVLAGSQPRFSSTHRVAECSTGTLDYILERCQLALQNVLNDSDDGDVSLKSFDPAVLKQGEEIHNEVEFEWLRQFWFQGNRYKLCTDWWCEPMTHLEGLWKKMESMTNAVLREVKREGLPVEQRSEILSAILVPLTVRQNLRKEWHARCQSRVVRTLPVQQKPDCRPYWEKDDPSMPLPFDLTDVVSELRGQLLEARS
notes: also called mFTO; wild-type mFTO; source: E. coli, soluble; prepared as previously reported for full length mFTO [8]
Regarding B2, the “stoichiometry N” value worked out at 2.

Source of the values: article PMC2719869, “A Mouse Model for the Metabolic Effects of the Human Fat Mass and Obesity Associated FTO Gene” (PLoS Genetics, 2009).
